The text below walks through data of publication PMC7920882.

Among the targets are TRA-CT6 mAb^2; TRA-CT6ZW-FT; TRA-CT6ZWY.
Assay in all cases: BLI; reverse outlay: full-length IgG-like constructs (50 ug/mL) loaded on anti-human Fc tips; VEGF in 2-fold dilutions from 500 nM; 25 C, PBS with Kinetic Buffer
The target of test [1] is TRA-CH3_(ZWHY)/CT6_(ZWLY).
In test [2] the target is TRA-CT6_(ZWHY)/CH3_(ZWLY).

Broadly, the Kd is the equilibrium constant for the complex coming apart. A low value points to tighter binding.

On to “VEGF isomer 109 with N75Q mutation (ligand)”, for which the dissociation constant Kd in test [1] is 6.2 nM; in the test with TRA-CT6 mAb^2, 2.78 nM; in the test with TRA-CT6ZW-FT, 1.48 nM; with TRA-CT6ZWY it was 16.6 nM; in test [2], 16.7 nM.
